From the domain aggregation screens of Martell et al. (2025)

Test: soluble fraction after stress (log2 fold change); higher = more stays soluble; pooled small domains, quantitative proteomics
Conditions: stress: 50 degC
How it was run: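 The stress applied to every library was 50°C. These custom libraries of small protein domains were pooled and measured at high throughput with quantitative proteomics as the read-out. Aggregation propensity is expressed as the base-two logarithm of the fold change in how much of each protein remains soluble. The higher the value, the more of that protein stays in solution.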

| Sequence | soluble fraction (log2) |
| --- | --- |
| HMPTQGELAILRVLWEQGPSTVRAVWEKLNSQSGTGYTTALKLMQIMAQKGLVSRDESQKTHVYRA | -1.42 |
| HMPTTRPEAEAHYETHQRYHDLQIDVEGREAFKVATGSLTLVQEFDEKDDYDLSIPTPRSPAILLTT | 0.0218 |
| HMPVFYVTGNRVNFRAGPSTGDRVIGSLSQGAAVEVLGPTDDAWINIRDSDGRVGYMSAQFLSQ | -0.069 |
| HMPVLDETVPAALDGERIDRVVALLADVSRNRAGIAIAAGSVRLDGAVVTQRSRKVRADEELVVDGLER | -0.015 |
| HMPVNEEFKRLIDKIKYEFSINQAQISERLGVKSTYLSDMINGRVPYNESMQKKIHEVFHIG | -0.0665 |
| HMPVNGEFIERIKVMVLENKAKGKKERLTKTRMHQLLQEEGYKGSYSAFTHQVRIIEEELGVNQKEAH | -0.0836 |
| HMPVSRMRARHEALARGVMGIHAGGFSAVYGYRKVWHGLIGKGWDPGEVGRDQVMNIMRGLGMQGVRR | 0.266 |
| HMPVSVAEQKQILAEALQERGHATFRELIENADNRMIVVGRFLALLELYRDGTVRFEQERALGELTIHWEE | -0.318 |
| HMPYIVNHIHLKSEDPKITADWFVKAFNFEIVSDVVRHFGDRFIVTKAEGGMTINISGVRDGEEL | -0.0655 |
| HMPYNNLADAPASWKKLDDTPLTLGQVNWIAKIYDALVAKGMEKGAAAGTAISRFKKSFKVADGKWVQV | -0.0698 |
| HMPYNRRYLISNADGALYTVEENGLVKLEETNLTAELFETRGMQDIPDGKLLITLHDPTILYWHDSENLFP | -1.19 |
| HMPYSPTPGSAPARLIAHLQEHGDSVNRTAIAELLQVDRKNVHNYLARAVTHGLLLRHGGGAYSLP | 0.086 |
| HMQADEENPKYPVITDGVIQLEVLESIDKTEEWLVERLAKDGYNNVSEIFIAEYENGNLSIVT | 0.148 |
| HMQADPYTVLGVLRDVTDGELKREYRKLVREHHPDALIAQGVPQEFVDIANNKLAVINAAYERIAKQRGL | 0.00775 |
| HMQAGILTDTAAKNARIKKIDTERLEAELDQKRIVIVTGFQGVDRNQNITTLGRGGSDTSAVALAAAVSIT | 0.185 |
| HMQAKDVEIPNFVGKTLAEANADNKDNFNFVVESKYDASKELGVILEQEPAADSKLVKSGSQITLKV | ≥ 0.62 |
| HMQALDNNDALEEIIKKVITENPSQVTEFRNGKDSLMNFLVGKVMAASGGKANPKTLPETIEKIIK | 0.12 |
| HMQAMDYEGFKKEILKMSDIDLSLYKEKQMKRRIDSLIRKNGYEHYEDYVQALKQDSGLYNEFINYLTI | 0.439 |
| HMQANLPFSELLADVDRGLISDVTIKGDQVSGHYTDGRTFNTFIPPEADLVRRLTEKNVRIAAVPD | -0.111 |
| HMQAPAFDYSKVQEGVTVNHKIFGDGTVSWIDKARKYIRVQFSVGEKMFTMETAFVQGFLSL | -0.348 |
| HMQAPVDPIVLGKMGSSYGIRGWLRVFSSTEDAESIFDYQPWFIQKAGQWQQVQLESWKHHNQDMIIKLN | 0.0749 |
| HMQARLPFSFAKRHGVILLAATGEGQSDVIYKSGFDIGALAEVRRFVAGEIALKEVDGPSFDRQLTLTYQN | -1.77 |
| HMQARSQQTIQTLFKAAAQILDKEGEAGLSTNKVAAAAGFSIGTLYQYFPSKEVLIQAMAAR | -0.0788 |

| Sequence | soluble fraction (log2) |
| --- | --- |
| HMQASISVDEAKSIALNYAKFTADQVVYTKSELDYDDGRAEYEIEFYAGGKEYSFTIDAVSGTVLEMEI | -1.7 |
| HMQATDEEIENFTSSAITAYKLTKEEGYIISMRDMKPIMEIVKTEYPMANGKVVSKVMNNYING | -0.0668 |
| HMQDELSSSVIEEAVVVLLLRAANIDGKKDEQEIEAIKRLIIQQFNYDEEKADILITSASEK | -0.218 |
| HMQDGTILPGQKTAIRSLATSGGYDSQDLDTYLATTYGKSIDGLTRTEGADVIKAFQAGTVAK | 0.233 |
| HMQDLEIKINLGMTYYEVREAIGSPDIIDKINQYGRDFQMWTYYIDDKTKRYYFEDHLLTKI | -3.33 |
| HMQDLPPIHLSRGMTDYTLVRSRRRTLSMELKRDGTVVVHAPLRLGVEKIDAFVAAHEAWLARARTRQAER | -2.41 |
| HMQDNPELVARIEKAAARGTSSMSDWERSFMGSLLDSAKKWGRLTAKQHEVFQRIEKKTDPAHQAAVS | 0.0476 |
| HMQDPRITRTRGLILQAFDALLVEKGFHALSVQAIAGRAGINRATFYAHFADKYALLDTSIQE | 0.268 |
| HMQDREKNIAEGRDIIEHEFMRLGISLSRYDLDGLASKLNVKAGDDVLAGVGAGDIRVSQIISQLG | -0.00799 |
| HMQDTVKNVFGAFTIFTDKPFAIGDTINVNGLEGTVVDVGMRSTQILGYDRRITSYPNYKITDSSIVNISS | -0.0701 |
| HMQDVVFTVDKDQTGAEIGDMLYEKGIISSPTTFRLALRLTGSMDKLQQGYYQIPQNASLRQVIALLQKG | -0.393 |
| HMQDYYTQSDFARYLEDKGIHFPQNKIAVYRKRGKFPKEDLVVAGTPYWSKYTVESFAKHLLEQQN | 0.0719 |
| HMQEAATSLNAKILAKLRENNGTLAVSDKSDPALISSLFGVSKGNFKKAIGALYKNGQIVIHADRIEL | -0.436 |
| HMQEDQKTSIFDIEGVEKGVASVLSSIKVEIVSDLLEADMDDILKSGKISEDDLDGVYEAVQNFVER | 0.42 |
| HMQELNDQQRLAILNEWNNRATNPPSLLELVRVAFPDAEGADGRSWHGKKVKEFLSTRQIKARAS | 0.119 |
| HMQENFYMILESEERRVLDVLVADQPESVATFLKLVSPFPNYKIILEHINEKALDFYEETVI | -0.303 |
| HMQESTILPAQKSAISSLATSAGFSSENLKRYLLQNYGVDLKDLTRSQGAEVIKAFQSGNVSKP | 0.0882 |
| HMQETPAMLAMKELPTEDEQRIYMMLQEDYDSVLLVKTIRNAFSQNPQLTRQQLLPIILTWLMT | -1.14 |
| HMQGATVYIKSDDIGKTTNEQGSFNFDKLKKNRYTLEISFIGYETKNLQAYTDRENIVQLNRKS | 0.248 |
| HMQGEVPYSQFLTEVDRGDVQSVVIEGNNISGFYKNSSTAFTVVAPDDPKLVERLMEQGVEVKARPV | 0.0205 |
| HMQGEVVTNRSVIDMSRAGLSADIIRAKILRSDTNFDVTAKALIELKESGVPDDIIALMLERADS | 0.128 |
| HMQGIPVTVTAERANLRSGPGTSFDKLGQVVQGDVLTLLEVQNDWYKVKTAEGKTAFVAAYLVNSP | 0.0205 |
| HMQGQADFTQGIANFTQYPVGSRITVFTLEGRRVAVVEIGKDGTAQLDMRNKPAGVYIVNTGKQSFKWLK | -1.26 |

| Sequence | soluble fraction (log2) |
| --- | --- |
| HMQGRIYLNPDLAEKLRAQYAAYPHWSYLLHTENLGALVRKTESLGPMPSYSTILRYMHANDMRKRNKP | -1.6 |
| HMQGVNLTETEKNFIAQVLSPLLKQGQSLYQIRTNHPEIKLSVKTLYTYIESGIFKESGINNFSLRRQ | 0.0431 |
| HMQILNVFSKHGIKPISPQIGDKFDPQLHEAMFEAPVPGTKAGDIIEVSSEGFMLYDRLLRPAHVGVSSN | 0.0206 |
| HMQILPAFLPENPELRARLANHSLEELTEILKQYKTLHNSTDVDTVKRAIRAIEIEEYYAVHPV | -0.777 |
| HMQINLKQSSDEELVKIITVQVHHYEPHTVKAAEAEIERRGIDKMRMAHLVKKVAQENTAVQEIQD | 0.18 |
| HMQISDDSELIKIVDNILANSQKQIDDYHNGKTNLFGFFVGQVMKETKGKANPVKVNEILKDKL | 0.00641 |
| HMQISDSSLIAKTVATVILENPEAVSDYLGGKHSVVRFMVGQIMKKTQGKANPKMATEMLETALNDL | -1.13 |
| HMQISDTTELSTLITKVLSEQSDALVDFKNPKKQKQVIGYLTGQVLRASQGKANPGLVRSLLEEQLSALDS | 0.124 |
| HMQISMQNIASVKIDDLSDEQIQEFSTKYTAAGYSFPDVENVAKQKGMPSSEIEKLRQRVLTAQNTQEK | -0.163 |
| HMQISSSEVLEKVVDEILSANPKSIEDYKNGKLQAAGFLMGQVMKATKGQANPAVAKELIEAKLKD | 0.419 |
| HMQISYDVPNLIGKSYEEVMTDPSILGEHFTVVLGETKTDEDTDAGVILHQDPAADSKVQDEVTPITVTVS | 0.42 |
| HMQITDTEAIATTLDEIIAANPKEWERLKAGQEQLVKFFVGQVMRVTKGRANPQVVNDLLKERL | -0.075 |
| HMQITNEGQIKLVISEVLNENQEQKKQYLSGKEQVLGYLIGKVMQKTKGKANPKLVNDLMIKELS | 0.257 |
| HMQITSTDEIEKMIDELIAANPEQTKQYQNGNHKVAGWFVGQMMKASKGKANPQMVNNLLQKKL | 0.0271 |
| HMQITTVSPKNYAEAELIGQRFREGNPVVMDLSKLDSDLGQRLVDFASGLVFALNGTVERIAKKVFLLSP | -0.943 |
| HMQIVHKHLQLQPDQGALRAALYSHKAVVAEQVNEQGAINLEIKLAESDFLRLLKSSGLKLQDLVSLS | -0.205 |
| HMQKAQEYILVDIKGEVQTPGVYKLPVNSRVIDAIEASGGLTKKAVTTYINLSKTLKDENVIIINKKSEL | -0.2 |
| HMQKITPDNWTYIRSLIRQKWSPDQIDQWLKKHPDVGFTVSRETIYQYVKEDRQKDGDLYLSLRRAGKSY | -1.71 |
| HMQKLKINKYKDPKGEIRYYIASTIRNGNKSSTHNLLSLGKHSDLLKEHSDVEAYLKERLNEAMESGI | -0.145 |
| HMQKPDIEVDFAEGDMVVVTGGAWKDTAGVITGINMQKQTVTINVELFGRETPVEISFTEIKKA | 0.00574 |
| HMQKVPDAFKAEQVQTLITRLGVSRAELARTLDVSLSTVNKWASGAVEPKGSALVLLKVLWMHGFKAL | -2.14 |
| HMQLDDDQKEELILKLIDSLDTTKKGAPLTELAREAAKSNIGESELEEITTSLLDKGLVYEPTIGKMKR | 0.216 |
| HMQLDLNENEKIIFEILQNNKTMQLSNLKTQTELSNKGWDKAIKSLTKQGLAKVSKIDNELIVEFL | -0.249 |
